Measured values: patent US20180280504A1, “GLYCAN-INTERACTING COMPOUNDS AND METHODS OF USE” (SIAMAB THERAPEUTICS, INC., priority 2014, published 2018)
Changes are numbered by the printed parent chain. Numbers in names are those of the source. Where “and” joins values, the source holds several entries; their conditions need not be identical. Equal entries are not always repeated. Where two headings read alike, the source gives them in different places. Values belong to the molecule of their own block, whether it stands above or below them.

Columns and labels:
Glycan array, AcSTn = type: binding; conditions: for Glycan Array AcSTn: summary table
Experimental: (§1) Optimized glycan arrays comprise 71 chemically synthesized and well-defined glycans, most of which comprise Neu5Ac and Neu5Gc glycan pairs.
(§2) 300 ml of epoxy blocking buffer is prepared by combining 15 ml of 2 M Tris buffer (pH 8) with 0.9 ml of 16.6 M ethanolamine and 284.1 ml of distilled water. The solution was brought to a final pH of 9.0 with HCl. The solution is filtered using a […] nitrocellulose membrane. The epoxy buffer solution as well as 1 L of distilled water are pre-warmed to 50° C. Glass slides are arranged in a slide holder and quickly submerged in a staining tub with the warmed epoxy blocking buffer. Slides are incubated in the epoxy blocking buffer for 1 hour at 50° C. with periodic shaking to deactivate epoxy binding sites. Next, slides are rinsed and blocked with PBS with 1% OVA at 25° C. for one hour. Serum samples with polyclonal antibodies (1:1000) or purified monoclonal antibodies (1 ug/mL), are diluted in PBS with 1% OVA and added to the glycan array for one hour at 25° C. After extensive washing, binding of antibodies are detected by incubating glycan microarray slides with Cy3-conjugated anti-mouse IgG (Jackson Immunoresearch, West Grove, Pa.) for one hour. Slides are then washed extensively, dried and scanned with a Genepix 4000B scanner (Laser at 100%; gain at 350; 10 μm pixels). Raw data from scanned images are extracted using the Genepix software and analysis of raw data is carried out.

Glycan array, GcSTn = type: binding; conditions: for Glycan Array GcSTn: summary table
Experimental: as §1, §2

[1] = Glycan array STn specificity and anti-STn antibody group assignment; type: binding; set-up: key to Group (anti-STn antibody group): Group 1: antibodies capable of binding AcSTn and GcSTn; Group 2: ability to bind STn as well as some related structures that include an O-linkage to serine or threonine; Group 3: antibodies capable of binding STn, but may also bind a broader set of related structures; Group 4: capable of binding to both AcSTn and GcSTn as well as the un-sialylated Tn antigen; conditions: for Group (anti-STn antibody group): assigned from flow cytometry and glycan array analysis; for Glycan Array STn Specificity: summary table
Experimental: as §2
Based on characterization data, anti-STn antibodies developed from Group 6 and Group 8 mice were categorized by anti-STn group number. In some cases, antibodies were assigned to Group 1. Group 1 antibodies according to the invention are antibodies capable of binding AcSTn and GcSTn. Such antibodies may have the ability to associate with a wider range of STn structures. The large oval in FIG. 1A indicates the portion of STn recognized by Group 1 antibodies. Antibodies were assigned to Group 2 based on their ability to bind STn as well as some related structures that include an O-linkage to serine or threonine. The large oval in FIG. 1B indicates the portion of STn recognized by Group 2 antibodies. In some cases, Group 2 antibodies may bind to glycans comprising a sialylated galactose residue. Some Group 2 antibodies preferably bind to structures with AcSTn over structures with GcSTn. Further anti-STn antibodies were assigned to Group 3. Group 3 antibodies are antibodies capable of binding STn, but may also bind a broader set of related structures. […] The large oval in FIG. 1C indicates the portion of STn recognized by Group 3 antibodies. Finally, some anti-STn antibodies were assigned to Group 4. Group 4 antibodies are capable of binding to both AcSTn and GcSTn as well as the un-sialylated Tn antigen, and therefore have broader specificity. The large oval in FIG. 1D indicates the portion of STn recognized by Group 4 antibodies. […] Also listed in the Table is the antibody Isotype for each antibody as determined by the IsoStrip mouse monoclonal antibody isotyping kit (Roche Diagnostics GmbH, Manheim, Germany).

[2] = test system: ST6GalNAc 1 transfected MDA-MB-231 cells (MDA-STn+); assay: Flow cytometry-based analysis of antibody binding, STn+ cells; set-up: species or system human; conditions: for EC50, flow cytometry binding to cell-associated STn: ST6GalNAc 1 transfected MDA-MB-231 cells, APC anti-mouse IgG
Experimental: Flow cytometry-based analysis is carried out to elucidate the curve-dose response for binding of antibodies to cell surface antigens. For these analyses, three cell lines are employed.
MDA-MB-231 cells are human breast cancer cells. They are grown in Earle's Minimum Essential Medium supplemented with 10% fetal calf serum (FCS), 100 μg/ml penicillin, 100 UI/ml streptomycin and 45 μg/ml gentamycin. MCF-7 cells are also human breast cancer cells and are grown under the same conditions as MDA-MB-231 cells. Stably transfected versions of MDA-MB-231 and MCF-7 cells (clone TAH3.P10 for MDA-MB-231 cells and clone A12.1 for MCF-7 cells) that over express GalNAc α2,6-sialyltransferase (ST6GalNAc 1,) are also cultured under the same conditions with the exception of an added 1 mg/ml of G418 to support cells expressing the transgene. ST6GalNAc 1 is an enzme capable of sialylating GalNAc. As a result of over expression, transfected cells express high levels of Neu5Ac-STn (see Julien, S. et al., Glycoconjugate journal. 2001. 18, 883-93; the contents of which are herein incorporated by reference in their entirety). E3 cells are murine breast cancer cells. They are cultured in Dulbecco's E4 medium with 10% FCS. Stably transfected versions of E3 cells expressing high levels of Neu5Gc-STn (E3-STn) are cultured with 600 μg/ml of G418 and 200 μg/ml hygromycin. During growth and maintenance of experimental cells, trypsin is not used for cell passaging.
For analysis, cells are harvested using StemPro Accutase (Life Technologies, Carlsbad, Calif.) and washed with PBS comprising 5% FBS before pelleting by light centrifugation. Cell numbers and viability are determined by trypan blue dye exclusion analysis and cell concentrations are adjusted to 5×10^6 cells/ml in PBS with 5% FBS. 50 μl of cells are added to each well of an assay plate. Cells are combined with 50 μl solutions of antibody being analyzed or control antibodies and incubated for 1 hour at 4° C. Cells are washed and pelleted twice with PBS with 5% FBS before being treated with 100 μl of PBS with 5% FBS comprising a 1:1,500 dilution of anti-mouse IgG (Southern Biotech, Birmingham, Ala.,) conjugated to allophycocyanin (APC). Cells are incubated for 30 min at 4° C. before washing and resuspending in 200 μl of propidium iodide (PI) diluted 1:1000 in PBS with 5% FBS. Treated cells are then subjects to flow cytometry analysis and 10,000 events are acquired for each sample.

[3] = glycan microarray, Cy3 anti-mouse IgG
[4] = summary table, unit not printed (same values in nM), read-out: Flow cytometry (EC50) MDA-STn+
[5] = STn expressed on MDA cells, based on mean fluorescence intensity of APC, #1, #2, #3 = lots, nM, read-out: EC50 value

EC50, flow cytometry binding to cell-associated STn [2]: 60.35 nM
EC50 [2, 4]: 354 nM
B1: 18C7: anti-STn mouse monoclonal, IgG2c κ, from mouse #4436; VH SEQ ID NO: 4, VL SEQ ID NO: 5 (antibody, V domains shown)
VH: QVTLKESGPGILQPSQTLSLTCSFSGFSLSTFGMGVGWIRQPSGKGLEWLAHIWWDDDKYYNPALKSRLTISKDTSKNQVFLKIANVDTADTATYYCARIAYYYGSERDYWGQGTTLTVSS
VL: QIVLTQSPAIMSASPGEKVTMTCSASSSISYMHWYHQKPGTSPKRWIYDTSKLASGVPARFSGSGSGTSYSLTISSMEAEDAATYYCHQRSSYTFGGGTKLEIKR
mean fluorescence intensity, AcSTn (Glycan array, AcSTn; [3]): about 9,000
Glycan Array AcSTn (Glycan array, AcSTn): 60%
mean fluorescence intensity, GcSTn (Glycan array, GcSTn; [3]): about 3,500
Glycan Array GcSTn (Glycan array, GcSTn): 40%
Group (anti-STn antibody group) [1]: Group 1
Glycan Array STn Specificity [1]: 100%

B2: S3F: 3F1 variable domains combined with IgG2a constant domains; heavy chain SEQ ID NO: 63, light chain SEQ ID NO: 64 (antibody)
heavy: QVQLQQSDAELVKPGASVKISCKASGYTFTDHAIHWVKQKPEQGLDWIGYISPGNGDIKYNEKFKDKVTLTADKSSSTACMHLNSLTSEDSAVYFCKRSLLALDYWGQGTTLTVSSAKTTAPSVYPLAPVCGDTTGSSVTLGCLVKGYFPEPVTLTWNSGSLSSGVHTFPAVLQSDLYTLSSSVTVTSSTWPSQSITCNVAHPASSTKVDKKIEPRGPTIKPCPPCKCPAPNLLGGPSVFIFPPKIKDVLMISLSPIVTCVVVDVSEDDPDVQISWFVNNVEVHTAQTQTHREDYNSTLRVVSALPIQHQDWMSGKEFKCKVNNKDLPAPIERTISKPKGSVRAPQVYVLPPPEEEMTKKQVTLTCMVTDFMPEDIYVEWTNNGKTELNYKNTEPVLDSDGSYFMYSKLRVEKKNWVERNSYSCSVVHEGLHNHHTTKSFSRTPGK
light: DIVMTQSHKFMSTSVGDRVSITCKASQDVGTNIAWYQQKPGRSPKVLIYSASTRHTGVPDRFTGSGSGTDFTLTISNVQSEDLTDYFCQQYSSFPLTFGVGTKLELKRADAAPTVSIFPPSSEQLTSGGASVVCFLNNFYPKDINVKWKIDGSERQNGVLNSWTDQDSKDSTYSMSSTLTLTKDEYERHNSYTCEATHKTSTSPIVKSFNRNEC
Glycan Array AcSTn (Glycan array, AcSTn): 63%
Glycan Array GcSTn (Glycan array, GcSTn): 31%
Glycan Array STn Specificity [1]: 94%
EC50, flow cytometry binding to cell-associated STn [2]: 2.051 nM and 2.13 nM and 1.94 nM
EC50 [2, 4]: 1.06 nM

EC50, flow cytometry binding to cell-associated STn [2]: 3.62 nM and 5.57 nM
EC50 [2, 5]: 5.57 nM
EC50 [2, 4]: 5.57 nM
B3: 10A5: anti-STn mouse monoclonal, IgG2c κ, from mouse #4406; VH SEQ ID NO: 6, VL SEQ ID NO: 7 (antibody, V domains shown)
VH: QVQLKESGPGLVAPSQSLSITCTVSGFSLTSYGVSWVRQPPGKGLEWLGVIWGDGSTNYHSSLISRLSISKDNSKSQVFLKLNSLQTDDTATYYCARAFVYWGQGTLVTVSA
VL: QIVLTQSPAIMSASPGEKVTMTCSASSSVSYIHWYQQKSGTSPKRWIYDTSKLASGVPARFSGSGSGTSYSLTISSMEAEDAATYYCQQWSSNPPMLTFGAGTKLELK
Glycan Array AcSTn (Glycan array, AcSTn): 96%
Glycan Array GcSTn (Glycan array, GcSTn): 1%
Group (anti-STn antibody group) [1]: Group 2
Glycan Array STn Specificity [1]: 97%

EC50, flow cytometry binding to cell-associated STn [2]: 7.52 nM
EC50, flow cytometry binding to cell-associated STn ([2]; listed as 8C11 Lot 111113): 7.28 nM
B4: 8C11: anti-STn mouse monoclonal, IgG2b κ, from mouse #4407; VH SEQ ID NO: 8, VL SEQ ID NO: 9 (antibody, V domains shown)
VH: B3 VH with S62A, S68I, A96T, R97K, A98G, V100T
VL: QIVLTQSPAIMSASPGEKVTMTCSASSSVSYMHWYQQKSGTSPKRWIFDTSKLASGVPARFSGSGSGTSYSLTISSMEAEDAATYYCQQWSSNLLTFGAGTKLELK
Glycan Array AcSTn (Glycan array, AcSTn): 75%
Glycan Array GcSTn (Glycan array, GcSTn): 9%
Group (anti-STn antibody group) [1]: Group 2
Glycan Array STn Specificity [1]: 84%

EC50, flow cytometry binding to cell-associated STn [2]: 1.41 nM
EC50, flow cytometry binding to cell-associated STn ([2]; listed as 2D4-1B4): 1.19 nM
EC50 ([2]; STn expressed on MDA cells, based on mean fluorescence intensity of APC, #1, #2, #3 = lots, nM, listed as 2D4#1, read-out: EC50 value): 2.23 nM
EC50 ([2]; STn expressed on MDA cells, based on mean fluorescence intensity of APC, #1, #2, #3 = lots, nM, listed as 2D4#2, read-out: EC50 value): 1.41 nM
EC50 [2, 4]: 1.41 nM
B5: 2D4: anti-STn mouse monoclonal, IgG2b κ, from mouse #4407; VH SEQ ID NO: 10, VL SEQ ID NO: 11 (antibody, V domains shown)
VH: B3 VH with K5Q, T30I, S35N, H60Q, S62A, S68I, A96T, R97K, A98G, V100A
VL: B4 VL with Y35F, F48Y
Glycan Array AcSTn (Glycan array, AcSTn): 88%
Glycan Array GcSTn (Glycan array, GcSTn): 1%
Group (anti-STn antibody group) [1]: Group 2
Glycan Array STn Specificity [1]: 89%

B6: 7G9: anti-STn mouse monoclonal, IgG2b κ, from mouse #4407; VH SEQ ID NO: 12, VL SEQ ID NO: 9 (antibody, V domains shown)
VH: B3 VH with S17N, S35N, S62A, S68I, D72E, D88N, A96T, R97K, A98G
VL: B4 VL
Glycan Array AcSTn (Glycan array, AcSTn): 72%
Glycan Array GcSTn (Glycan array, GcSTn): 7%
Group (anti-STn antibody group) [1]: Group 2
Glycan Array STn Specificity [1]: 79%
EC50, flow cytometry binding to cell-associated STn [2]: 6.91 nM
EC50, flow cytometry binding to cell-associated STn ([2]; listed as 7G9#2): 7.33 nM
EC50, flow cytometry binding to cell-associated STn ([2]; listed as 7G9#3): 5.15 nM
EC50 [2, 5]: 5.15 nM
EC50 [2, 4]: 5.15 nM
